Reference: patent US20050043510A1, “Affinity purification system using troponin molecules as affinity ligands” (priority 2003, published 2005)

Columns and labels:
calmodulin = calmodulin (Homo sapiens, UniProt P0DP23); details: in the presence of calcium; Hanson Pierce et al. (1998); cited from earlier work
bovine serum albumin = bovine serum albumin (Bos taurus, UniProt P02769); details: in the presence of calcium; Hanson Pierce et al. (1998); cited from earlier work
[1] = target: rabbit skeletal muscle troponin C (Oryctolagus cuniculus, UniProt P02586); details: in the presence of calcium; Hanson Pierce et al. (1998); cited from earlier work
rabbit skeletal muscle troponin C, sequence (P02586 whole entry, the tested form may be a part): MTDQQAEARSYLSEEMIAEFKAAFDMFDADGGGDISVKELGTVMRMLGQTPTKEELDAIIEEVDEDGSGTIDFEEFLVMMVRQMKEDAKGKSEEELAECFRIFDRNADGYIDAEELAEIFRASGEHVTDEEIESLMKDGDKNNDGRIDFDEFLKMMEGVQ

[2] = test system: troponin C-tagged C-terminal truncated version of La/SSB (TnC-LaΔC)

bovine serum albumin, sequence (P02769 25-607): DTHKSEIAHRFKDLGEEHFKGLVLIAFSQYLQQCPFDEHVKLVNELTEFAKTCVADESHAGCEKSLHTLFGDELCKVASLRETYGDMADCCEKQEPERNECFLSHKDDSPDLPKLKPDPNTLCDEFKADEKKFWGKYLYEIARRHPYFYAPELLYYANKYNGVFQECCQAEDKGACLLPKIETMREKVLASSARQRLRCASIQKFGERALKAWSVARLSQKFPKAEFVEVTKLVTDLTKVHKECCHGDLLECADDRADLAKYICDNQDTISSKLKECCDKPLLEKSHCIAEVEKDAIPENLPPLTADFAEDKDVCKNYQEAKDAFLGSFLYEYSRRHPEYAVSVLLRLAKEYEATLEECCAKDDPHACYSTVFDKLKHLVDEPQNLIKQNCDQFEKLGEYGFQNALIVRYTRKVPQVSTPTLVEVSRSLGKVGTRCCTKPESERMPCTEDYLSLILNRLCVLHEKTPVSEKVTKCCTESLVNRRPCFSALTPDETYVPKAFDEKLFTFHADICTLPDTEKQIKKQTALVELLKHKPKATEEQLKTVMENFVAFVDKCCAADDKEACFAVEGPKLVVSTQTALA

SRLDYLKSSLLHLGSR (SEQ ID NO:1) [Troponin C binding peptide, previously described (Hanson Pierce et al. 1998)]
Calcium dependent binding (calmodulin): not | Calcium dependent binding (bovine serum albumin): not | Calcium dependent binding [1]: demonstrated

biotinylated thrombin (Thrombin Cleavage Capture Kit, Novagen)
thrombin proteolytic cleavage (SDS-PAGE) [2]: apparent complete cleavage when 0.1 units of thrombin was used
